# Patent publication US20190076400A1 (PROTAGONIST THERAPEUTICS, published 2019)
# Square brackets hold non-standard residues; d marks the D form. Primed or numbered codes have the meaning given here. Phe(2,6-Me2,4-CONH2) = Cc1cc(C(N)=O)cc(C)c1C[C@H](N)C(=O)O; Phe(3,4-(OMe)2) = COc1ccc(C[C@H](N)C(=O)O)cc1OC; Phe(3,4-Cl2) = N[C@@H](Cc1ccc(Cl)c(Cl)c1)C(=O)O; Trp(5-OH) = N[C@@H](Cc1c[nH]c2ccc(O)cc12)C(=O)O; Phe(4-COOH) = N[C@@H](Cc1ccc(C(=O)O)cc1)C(=O)O; Phe(4-tBu) = CC(C)(C)c1ccc(C[C@H](N)C(=O)O)cc1; Dip = N[C@H](C(=O)O)C(c1ccccc1)c1ccccc1; Phe(4-F) = N[C@@H](Cc1ccc(F)cc1)C(=O)O; Dmt = Cc1cc(O)cc(C)c1C[C@H](N)C(=O)O; NMeR = CN[C@@H](CCCNC(=N)N)C(=O)O; dNMeF = CN[C@H](Cc1ccccc1)C(=O)O; hPhe = N[C@@H](CCc1ccccc1)C(=O)O; αMeF = C[C@](N)(Cc1ccccc1)C(=O)O; Tic = O=C(O)[C@@H]1Cc2ccccc2CN1; β3hF = N[C@H](CC(=O)O)Cc1ccccc1; N(octyl)Gly = CCCCCCCCNCC(=O)O; Tic(7-OH)′ = not defined here; Nle = CCCC[C@H](N)C(=O)O; THP = not defined here; Aib = CC(C)(N)C(=O)O; βAla = NCCC(=O)O; Sar = CNCC(=O)O
# Target: δ-opioid receptor (DOR), Human-ORPD1 (human, UniProt P41143 1-372)
# Assay: cell-based or functional assay
# Sequence of δ-opioid receptor (DOR), Human-ORPD1 (P41143 whole entry, stated change not applied): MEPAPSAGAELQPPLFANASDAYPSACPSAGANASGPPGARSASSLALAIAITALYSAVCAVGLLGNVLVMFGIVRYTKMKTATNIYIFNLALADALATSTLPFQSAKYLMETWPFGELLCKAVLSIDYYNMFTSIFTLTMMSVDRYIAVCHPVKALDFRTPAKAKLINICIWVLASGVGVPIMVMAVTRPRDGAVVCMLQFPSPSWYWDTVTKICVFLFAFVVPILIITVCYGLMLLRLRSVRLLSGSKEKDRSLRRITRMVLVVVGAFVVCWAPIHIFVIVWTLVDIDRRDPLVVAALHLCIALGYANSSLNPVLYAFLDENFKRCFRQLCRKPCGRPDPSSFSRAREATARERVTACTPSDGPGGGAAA
row,Binder,DOR EC50 [nM]
1,H-[Dmt][NMeR]G[β3hF][Sar]-NH2 (SMILES Cc1cc(O)cc(C)c1C[C@H](N)C(=O)N(C)[C@@H](CCCNC(=N)N)C(=O)NCC(=O)N[C@H](CC(=O)N(C)CC(N)=O)Cc1ccccc1) [H-DMT-N(Me)Arg-G-bhF-Sar-NH2],≤ 200
2,H-[Dmt][dR]F[N(octyl)Gly]-NH2 (SMILES CCCCCCCCN(CC(N)=O)C(=O)[C@H](Cc1ccccc1)NC(=O)[C@@H](CCCNC(=N)N)NC(=O)[C@@H](N)Cc1c(C)cc(O)cc1C) [H-DMT-r-F-Octyl Gly-NH2],≤ 200
3,H-[Dmt][dR]F[hPhe]-NH2 (SMILES Cc1cc(O)cc(C)c1C[C@H](N)C(=O)N[C@H](CCCNC(=N)N)C(=O)N[C@@H](Cc1ccccc1)C(=O)N[C@@H](CCc1ccccc1)C(N)=O) [H-DMT-r-F-HomoPhe-NH2],≤ 10
4,H-[Dmt][dR]GW-NH2 (SMILES Cc1cc(O)cc(C)c1C[C@H](N)C(=O)N[C@H](CCCNC(=N)N)C(=O)NCC(=O)N[C@@H](Cc1c[nH]c2ccccc12)C(N)=O) [H-DMT-r-G-W-NH2],≤ 50
5,H-[Dmt][dR]F[Nle]-NH2 (SMILES CCCC[C@H](NC(=O)[C@H](Cc1ccccc1)NC(=O)[C@@H](CCCNC(=N)N)NC(=O)[C@@H](N)Cc1c(C)cc(O)cc1C)C(N)=O) [H-DMT-r-F-Nle-NH2],≤ 50
6,H-[Dmt][dR][BIP][Sar]-NH2 [H-DMT-r-BIP-Sar-NH2],≤ 1
7,H-[Dmt][dA]V[β3hF][Sar]-NH2 (SMILES Cc1cc(O)cc(C)c1C[C@H](N)C(=O)N[C@H](C)C(=O)N[C@H](C(=O)N[C@H](CC(=O)N(C)CC(N)=O)Cc1ccccc1)C(C)C) [H-DMT-a-Val-bhF-Sar-NH2],≤ 200
8,H-[Dmt][dA][THP][β3hF][Sar]-NH2 (reading uncertain; also: printed as H-DMT-a-THP-bhF-Sar-NH2) [H-DMT-a-THP-bhF-Sar-NH2],≤ 200
9,H-[Phe(4-tetrazolyl)][dA]G[β3hF][Sar]-NH2 [H-Phe(4-tetrazolyl)-a-G-bhF-Sar-NH2],≤ 200
10,"H-[Dmt][dR][Phe(3,4-(OMe)2)][Sar]-NH2 (SMILES COc1ccc(C[C@H](NC(=O)[C@@H](CCCNC(=N)N)NC(=O)[C@@H](N)Cc2c(C)cc(O)cc2C)C(=O)N(C)CC(N)=O)cc1OC) [H-DMT-r-Phe(3,4-diOMe)-Sar-NH2]",> 200
11,H-[Trp(5-OH)][dA]G[β3hF][Sar]-NH2 [H-Trp(5-OH)-a-G-bhF-Sar-NH2],≤ 200
12,H-[Dmt][dR]FL-NH2 (SMILES Cc1cc(O)cc(C)c1C[C@H](N)C(=O)N[C@H](CCCNC(=N)N)C(=O)N[C@@H](Cc1ccccc1)C(=O)N[C@@H](CC(C)C)C(N)=O) [H-DMT-r-F-L-NH2],≤ 50
13,H-[Phe(4-COOH)][dA]G[β3hF][Sar]-NH2 [H-Phe(4-COOH)-a-G-bhF-Sar-NH2],≤ 200
14,H-[Dmt][dR]W[Nle]-NH2 (SMILES CCCC[C@H](NC(=O)[C@H](Cc1c[nH]c2ccccc12)NC(=O)[C@@H](CCCNC(=N)N)NC(=O)[C@@H](N)Cc1c(C)cc(O)cc1C)C(N)=O) [H-DMT-r-W-Nle-NH2],≤ 50
15,H-[Dmt][dR][Dip][Sar]-NH2 (SMILES Cc1cc(O)cc(C)c1C[C@H](N)C(=O)N[C@H](CCCNC(=N)N)C(=O)N[C@H](C(=O)N(C)CC(N)=O)C(c1ccccc1)c1ccccc1) [H-DMT-r-DPA-Sar-NH2 (Seq. ID 32)],> 200
16,H-[Phe(3-OH)][dA]G[β3hF][Sar]-NH2 [H-meta-Tyr-a-G-bhF-Sar-NH2],> 200
17,"H-[Phe(2,6-Me2,4-CONH2)][dD]G[β3hF][Sar]-NH2 (SMILES Cc1cc(C(N)=O)cc(C)c1C[C@H](N)C(=O)N[C@H](CC(=O)O)C(=O)NCC(=O)N[C@H](CC(=O)N(C)CC(N)=O)Cc1ccccc1) [H-Phe(DMC)-(D)Asp-G-bhF-Sar-NH2]",≤ 1
18,H-[Dmt][dR]F[Phe(4-F)]-NH2 [H-DMT-r-F-Phe(4-F)-NH2],≤ 50
19,H-[Dmt][dR][Tic][Sar]-NH2 (SMILES Cc1cc(O)cc(C)c1C[C@H](N)C(=O)N[C@H](CCCNC(=N)N)C(=O)N1Cc2ccccc2C[C@H]1C(=O)N(C)CC(N)=O) [H-DMT-r-Tic-Sar-NH2],> 200

row,Binder,DOR EC50 [nM]
1,H-[Dmt][dR]F[Dip]-NH2 (SMILES Cc1cc(O)cc(C)c1C[C@H](N)C(=O)N[C@H](CCCNC(=N)N)C(=O)N[C@@H](Cc1ccccc1)C(=O)N[C@H](C(N)=O)C(c1ccccc1)c1ccccc1) [H-DMT-r-F-DPA-NH2],≤ 50
2,"H-[Phe(2,6-Me2,4-CONH2)][dA]G[β3hF]G-NH2 (SMILES Cc1cc(C(N)=O)cc(C)c1C[C@H](N)C(=O)N[C@H](C)C(=O)NCC(=O)N[C@H](CC(=O)NCC(N)=O)Cc1ccccc1) [H-Phe(DMC)-a-G-bhF-Gly-NH2]",≤ 10
3,"H-[Phe(2,6-Me2,4-CONH2)]AG[β3hF][Sar]-OH [H-Phe(DMC)-A-G-bhF-Sar-OH]",≤ 200
4,H-[Dmt][dR]F[dNMeF]-NH2 (SMILES Cc1cc(O)cc(C)c1C[C@H](N)C(=O)N[C@H](CCCNC(=N)N)C(=O)N[C@@H](Cc1ccccc1)C(=O)N(C)[C@H](Cc1ccccc1)C(N)=O) [H-DMT-r-F-(D)N(Me)Phe-NH2],≤ 50
5,H-[Dmt][dR][Phe(4-tBu)][Sar]-NH2 (SMILES Cc1cc(O)cc(C)c1C[C@H](N)C(=O)N[C@H](CCCNC(=N)N)C(=O)N[C@@H](Cc1ccc(C(C)(C)C)cc1)C(=O)N(C)CC(N)=O) [H-DMT-r-4-tBu-Phe-Sar-NH2],> 200
6,H-[Dmt][dR]G[Dip]-NH2 (SMILES Cc1cc(O)cc(C)c1C[C@H](N)C(=O)N[C@H](CCCNC(=N)N)C(=O)NCC(=O)N[C@H](C(N)=O)C(c1ccccc1)c1ccccc1) [H-DMT-r-G-DPA-NH2],> 200
7,H-[Dmt][dR][Dip][Sar]-NH2 (SMILES Cc1cc(O)cc(C)c1C[C@H](N)C(=O)N[C@H](CCCNC(=N)N)C(=O)N[C@H](C(=O)N(C)CC(N)=O)C(c1ccccc1)c1ccccc1) [H-DMT-r-DPA-Sar-NH2 (Seq. ID 26)],> 200
8,"H-[Dmt][dR][Phe(3,4-Cl2)][Sar]-NH2 (SMILES Cc1cc(O)cc(C)c1C[C@H](N)C(=O)N[C@H](CCCNC(=N)N)C(=O)N[C@@H](Cc1ccc(Cl)c(Cl)c1)C(=O)N(C)CC(N)=O) [H-DMT-r-Phe(3,4-diCl)-Sar-NH2]",≤ 50
9,"H-[Phe(2,6-Me2,4-CONH2)][Aib]G[β3hF][Sar]-NH2 (SMILES Cc1cc(C(N)=O)cc(C)c1C[C@H](N)C(=O)NC(C)(C)C(=O)NCC(=O)N[C@H](CC(=O)N(C)CC(N)=O)Cc1ccccc1) [H-Phe(DMC)-Aib-G-bhF-Sar-NH2]",≤ 50
10,H-[Dmt][dR]F[αMeF]-NH2 (SMILES Cc1cc(O)cc(C)c1C[C@H](N)C(=O)N[C@H](CCCNC(=N)N)C(=O)N[C@@H](Cc1ccccc1)C(=O)N[C@@](C)(Cc1ccccc1)C(N)=O) [H-DMT-r-F-alpha-MePhe-NH2],≤ 10
11,H-[Tic(7-OH)′][dA]G[β3hF][Sar]-NH2 [H-Tic(7-OH)-a-G-bhF-Sar-NH2],≤ 50
12,H-[Dmt][dR][Sar]W-NH2 (SMILES Cc1cc(O)cc(C)c1C[C@H](N)C(=O)N[C@H](CCCNC(=N)N)C(=O)N(C)CC(=O)N[C@@H](Cc1c[nH]c2ccccc12)C(N)=O) [H-DMT-r-Sar-W-NH2],> 200
13,"H-[Phe(2,6-Me2,4-CONH2)][dA]G[Tic][Sar]-NH2 [H-Phe(DMC)-a-G-Tic-Sar-NH2]",≤ 50
14,H-[Dmt][dR]FV-NH2 (SMILES Cc1cc(O)cc(C)c1C[C@H](N)C(=O)N[C@H](CCCNC(=N)N)C(=O)N[C@@H](Cc1ccccc1)C(=O)N[C@H](C(N)=O)C(C)C) [H-DMT-r-F-V-NH2],≤ 10
15,"H-[Dmt][dR]F[Phe(3,4-(OMe)2)]-NH2 (SMILES COc1ccc(C[C@H](NC(=O)[C@H](Cc2ccccc2)NC(=O)[C@@H](CCCNC(=N)N)NC(=O)[C@@H](N)Cc2c(C)cc(O)cc2C)C(N)=O)cc1OC) [H-DMT-r-F-Phe(3,4-diOMe)-NH2]",≤ 10
16,"H-[Phe(2,6-Me2,4-CONH2)][NMeR]G[β3hF][Sar]-NH2 (SMILES Cc1cc(C(N)=O)cc(C)c1C[C@H](N)C(=O)N(C)[C@@H](CCCNC(=N)N)C(=O)NCC(=O)N[C@H](CC(=O)N(C)CC(N)=O)Cc1ccccc1) [H-Phe(DMC)-N(Me)Arg-G-bhF-Sar-NH2]",≤ 200
17,H-[Phe(4-NHCOCH3)][dA]G[β3hF][Sar]-NH2 [H-Phe(4-NHCOCH3)-a-G-bhF-Sar-NH2],≤ 200
18,H-[Dmt][dA][βAla][β3hF][Sar]-NH2 [H-DMT-a-bAla-bhF-Sar-NH2],≤ 200
